The results in this text go back to patent US20250019427A1 (BYOMASS, published 2025).

The Kd is the equilibrium constant for the complex coming apart. A low value points to tighter binding.

One assay has as its target T1, GDF15 (Homo sapiens (Human), UniProt Q99988 30-308).
T1 sequence: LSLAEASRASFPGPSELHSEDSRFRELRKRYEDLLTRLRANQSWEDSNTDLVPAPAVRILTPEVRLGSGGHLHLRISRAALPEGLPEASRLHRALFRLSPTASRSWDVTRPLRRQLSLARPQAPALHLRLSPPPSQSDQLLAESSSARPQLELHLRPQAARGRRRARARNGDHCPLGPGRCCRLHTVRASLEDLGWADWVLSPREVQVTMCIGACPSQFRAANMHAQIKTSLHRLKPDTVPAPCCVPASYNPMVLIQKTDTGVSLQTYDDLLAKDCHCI
Put plainly: cell-based or functional assay.

The target in another assay is T2, GDNF (UniProt P39905 78-211).
T2 sequence (looked up): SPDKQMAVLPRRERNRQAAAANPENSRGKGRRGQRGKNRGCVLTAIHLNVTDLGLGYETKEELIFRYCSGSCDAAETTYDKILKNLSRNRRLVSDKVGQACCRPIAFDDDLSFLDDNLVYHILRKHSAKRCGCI
Put plainly: Octet BLI, IgG on tip, avid. (BLI is a label-free optical method that tracks binding on a fibre tip over time.)

Another assay addresses GDF8 (UniProt O14793 267-375). As to the kind of experiment: Octet BLI, IgG on tip, avid.
The target in assay [1] is T3, GDF10 (UniProt P55107 369-478).
T3 sequence (looked up): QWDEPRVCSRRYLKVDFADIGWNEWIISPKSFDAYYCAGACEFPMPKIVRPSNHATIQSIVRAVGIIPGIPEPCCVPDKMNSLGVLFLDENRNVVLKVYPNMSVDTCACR
Put plainly: Octet BLI, IgG on tip, avid.

Another assay deals with T4, GDF11 (UniProt O95390 299-407).
T4 construct: Also the GDF-11 ligand of the ActRIIB/SMAD reporter assay
Put plainly: Octet BLI, IgG on tip, avid.

The next assay has as its target T5, Human Activin A Fc (human, UniProt P08476 311-426).
T5 sequence (looked up): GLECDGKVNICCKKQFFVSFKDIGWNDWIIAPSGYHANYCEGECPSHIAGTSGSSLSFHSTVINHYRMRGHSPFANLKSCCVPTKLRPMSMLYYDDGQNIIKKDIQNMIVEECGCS
Put plainly: Octet BLI, IgG on tip, avid.

For the next assay, the target named is T6, Human Activin B (human, UniProt P09529 293-407).
T6 construct: Also used for the Activin B ligand of the ActRIIB/SMAD reporter assay, where the species is not restated
T6 sequence (looked up): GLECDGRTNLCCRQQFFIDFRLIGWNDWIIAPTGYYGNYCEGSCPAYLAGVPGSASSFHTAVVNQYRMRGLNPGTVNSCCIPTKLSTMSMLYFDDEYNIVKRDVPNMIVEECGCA
Put plainly: Octet BLI, IgG on tip, avid.

Another assay deals with T7, Cyno GDF15 Fc (cyno, UniProt G7PWZ3 193-308).
T7 construct: also called cyno GDF15-Fc fusion
T7 sequence: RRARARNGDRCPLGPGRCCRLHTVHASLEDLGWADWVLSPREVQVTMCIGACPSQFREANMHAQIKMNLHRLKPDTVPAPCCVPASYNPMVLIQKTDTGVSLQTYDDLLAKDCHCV
As to the kind of experiment: Octet BLI, IgG on AHC tip, avid. As to the method:
(§1) Briefly, ForteBio affinity measurements were performed by loading IgGs on-line onto AHC sensors. Sensors were equilibrated off-line in assay buffer for 30 min and then monitored on-line for 60 seconds for baseline establishment. Sensors with loaded IgGs were exposed to 100 nM antigen for 3 minutes, and afterwards were transferred to assay buffer for 3 min for off-rate measurement. All kinetics were analyzed using the 1:1 binding model.

A further assay addresses T8, Mouse GDF15 Fc (mouse, UniProt Q9Z0J7 189-303, limits assumed).
T8 construct: also called mouse GDF15Fc fusion
T8 sequence (looked up): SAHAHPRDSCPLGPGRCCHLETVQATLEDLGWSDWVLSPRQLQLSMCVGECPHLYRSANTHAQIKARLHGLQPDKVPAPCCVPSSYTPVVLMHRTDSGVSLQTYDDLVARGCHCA
As to the kind of experiment: Octet BLI, IgG on AHC tip, avid. As to the method: as §1

For a further assay, the target named is T9, Rat GDF-15 Fc (rat, UniProt Q9Z0J6 189-303, limits assumed).
T9 sequence (looked up): T8 sequence (looked up) with A4L, Q63L, K75R, R110Q
Put plainly: Octet BLI, IgG on AHC tip, avid. The procedure: as §1

Another assay has as its target T10, Human BMP9 (human, UniProt Q9UK05 320-429).
T10 sequence (looked up): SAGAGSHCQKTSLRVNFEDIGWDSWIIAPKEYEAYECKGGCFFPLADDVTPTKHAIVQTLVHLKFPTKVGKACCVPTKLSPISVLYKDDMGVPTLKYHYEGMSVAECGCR
Put plainly: Octet BLI, IgG on tip, avid; P.F. = binder with poor fit.

For assay [2], the target named is T11, Human BMP10 (human, UniProt O95393 317-424).
T11 sequence (looked up): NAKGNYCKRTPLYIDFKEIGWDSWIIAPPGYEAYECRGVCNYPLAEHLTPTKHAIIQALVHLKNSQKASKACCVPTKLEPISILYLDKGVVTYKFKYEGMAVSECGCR
The description is as above.

Assay [3] addresses T3, GDF10. Described as above.
Assay [4] deals with T11, Human BMP10. As to the kind of experiment: Octet BLI, IgG on tip, avid.

Residue numbers refer to the chain shown, from its start.

T4 sequence (O95390 299-407 limits assumed): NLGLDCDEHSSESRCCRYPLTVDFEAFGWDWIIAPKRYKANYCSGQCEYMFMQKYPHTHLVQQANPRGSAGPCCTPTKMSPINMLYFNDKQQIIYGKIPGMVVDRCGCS

B1: Clone G IgG (antibody, V domains shown)
VH: QVQLVQSGAEVKKPGSSVKVSCKASGGTFQGYAISWARQAPGQGLEWMGGIIPPYATANYAQKFQGRVTITADESTSTAYMELSSLRSEDTAVYYCARGVGELHLDVWGQGTMVTVSS
VL: not shown
notes: IgG format
B1: the “GDF15 - GFRAL RET pERK IC50 (pM)” value with GDF15 came out at 66.7 pM. The “GDF15 - GFRAL-RET Luciferase IC50 (pM)” value in the assay with GDF15 is 97.1 pM. Further, the binding result with GDNF is given as “no binding (tested: 100 nM)”; in the assay with GDF8, “no binding (tested: 100 nM)”; with GDF11 it was “no binding (tested: 100 nM)”; with Human Activin A Fc it was “no binding (tested: 100 nM)”; with Human Activin B it was “no binding (tested: 100 nM)”; with Human BMP9, “binds”. Further, the binding result with Human BMP10 [2] was “binds”. Also, the Kd with GDF10 [1] turned out to be 36.8 nM; with Cyno GDF15 Fc, 0.107 nM; with Mouse GDF15 Fc, 0.191 nM; in the assay with Rat GDF-15 Fc it was 1.01 nM.

B2: Clone A IgG (antibody, V domains shown)
VH: QVQLQESGPGLVKPSQTLSLTCTVSGGSITSGGSYWSWIRQHPGKGLEWIGAIVYSGSTYYNPSLKSRVTISVDTSKNQFSLKLSSVTAADTAVYYCARGVEYQHFDYWGQGTLVTVSS
VL: not shown
notes: IgG format
Regarding B2, in the assay with GDF15, the “GDF15 - GFRAL RET pERK IC50 (pM)” value amounted to 102 pM. In the assay with GDF15, the “GDF15 - GFRAL-RET Luciferase IC50 (pM)” value is 75 pM. Further, the binding result is reported as “no binding (tested: 100 nM)” with GDNF; “no binding (tested: 100 nM)” with GDF8; “no binding (tested: 100 nM)” with GDF11; “no binding (tested: 100 nM)” with Human Activin B; “binds” with GDF10 [3]; “binds” with Human BMP9. In the assay with Human BMP10 [2], the binding result is given as “binds”. Moreover, the Kd with Human Activin A Fc came out at 7.34 nM.

B3: Clone D IgG (antibody, V domains shown)
VH: B2 VH with T30N, S34Y, S37T, V54Y, Y60V, D107N, Y108E
VL: not shown
notes: IgG format
For B3, the “GDF15 - GFRAL RET pERK IC50 (pM)” value in the assay with GDF15 was 50.4 pM. Moreover, the “GDF15 - GFRAL-RET Luciferase IC50 (pM)” value with GDF15 stood at 58.7 pM. For the same molecule, the binding result with GDNF is recorded as “no binding (tested: 100 nM)”; with GDF8, “no binding (tested: 100 nM)”; with GDF11 it was “no binding (tested: 100 nM)”; with Human Activin B it was “no binding (tested: 100 nM)”; in the assay with Human BMP10 [4], “no binding (tested: 100 nM)”; with GDF10 [3], “binds”. Moreover, the binding result with Human BMP9 was “binds”. The Kd in the assay with Human Activin A Fc is 7.87 nM; with Cyno GDF15 Fc, 0.141 nM; in the assay with Mouse GDF15 Fc, 0.299 nM; in the assay with Rat GDF-15 Fc it was 0.467 nM.
